ATRX fold enrichment (Seq. CpA IP/CpB IP) and H3 fold enrichment (Seq. CpA IP/CpB IP) data for 2 substances are collected here from article PMC4363203.

For the assay, the target named is centromere protein A (CENP-A), histone H3 variant (human (endogenous in HcoEpiC, HeLa and SW480)) (UniProt P49450). The experiment in a line: co-IP; sequential native CENP-A IP of the chromatin left unbound by the CENP-B IP ('ectopic CENP-A'); SW480 cells; quantitative fluorescent western blot, background-corrected, input-adjusted ratio to the CENP-B IP. A general note: A western blot detects proteins with antibodies after separation by electrophoresis.
Sequence of UniProt P49450 (P49450 whole entry, stated change not applied): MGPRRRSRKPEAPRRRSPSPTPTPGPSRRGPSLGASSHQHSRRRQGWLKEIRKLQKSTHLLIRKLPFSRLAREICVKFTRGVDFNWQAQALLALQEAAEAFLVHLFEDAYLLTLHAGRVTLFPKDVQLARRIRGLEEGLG

In the case of “ATRX, transcription-coupled histone chaperone (from UniProt P46100 1-2492) (natural protein)”, the ATRX fold enrichment (Seq. CpA IP/CpB IP) is 0.81 fold. For the substance “canonical histone H3 (from UniProt P68431 1-136) (natural protein)”, the H3 fold enrichment (Seq. CpA IP/CpB IP) turned out to be 2.91 fold.
